# Assay results published in patent US20240254254.
# B1: TAP1 NBD of SEQ ID NO:87 with a peptide comprising a SpyTag3, TEV protease site and a His tag attached at the C-terminus (protein)
# chain: MPPSGLLTPLHLEGLVQFQDVSFAYPNRPDVLVLQGLTFTLRPGEVTALVGPNGSGKSTVAALLQNLYQPTGGQLLLDGKPLPQYEHRYLHRQVAAVGQEPQVFGRSLQENIAYGLTQKPTMEEITAAAVKSGAHSFISGLPQGYDTEVDEAGSQLSGGQRQAVALARALIRKPSVLILDNATSALDAGNQLRVQRLLYESPERYSRSVLLITQHLSLVEQADHILFLEGGAIREGGTHQQLMEKKGSYWAMVQAPADAPE
# B2: human TAP1 NBD comprising N676G, S677N, Q680R, E682Q and Q683R substitutions, substitutions of cysteines with serines (SEQ ID NO:10) and a C-terminal His tag (protein)
# chain: GLLTPLHLEGLVQFQDVSFAYPNRPDVLVLQGLTFTLRPGEVTALVGPNGSGKSTVAALLQNLYQPTGGQLLLDGKPLPQYEHRYLHRQVAAVGQEPQVFGRSLQENIAYGLTQKPTMEEITAAAVKSGAHSFISGLPQGYDTEVDEAGSQLSGGQRQAVALARALIRKPSVLILDNATSALDAGNQLRVQRLLYESPERYSRSVLLITQHLSLVEQADHILFLEGGAIREGGTHQQLMEKKGSYWAMVQAPADAPE
# Experiments:
# [1] = size exclusion chromatography (Superdex S200 Increase) in 1 mM ATP buffer
# [2] = size exclusion chromatography (Superdex S200 Increase) in 1 mM ADP buffer
# [3] = size exclusion chromatography in 1 mM ADP (monomer state)
# [4] = size exclusion chromatography in 1 mM ATP (dimer state)
Protein,elution volume (SEC) in 1 mM ATP [1],elution volume (SEC) in 1 mM ADP [2],effective molecular weight (SEC) in 1 mM ADP [3],effective molecular weight (SEC) in 1 mM ATP [4]
B1,The ATP-containing sample eluted at a volume of 15.75 ml,the ADP sample eluted at 16.81 ml,–,–
B2,–,–,in the presence of ADP the protein chromatographs with an effective molecular weight of 37 kDa,in the presence of ATP the protein chromatographs with an effective molecular weight of 57 kDa
